In patent publication US20250043017A1 (Regeneron, published 2025):

B1: mAb9364 (antibody, V domains shown)
VH: EVQLVESGGGLVQPGRSLRLSCAASGFTFDDYALHWVRQAPGKGLEWVSGISWTGGTIDYADSVKGRFTISRDNAKNSLYLQMSSLRTEDTAIYYCTRDIRGNWKYGGWFDPWGQGTLVTVSS
VL: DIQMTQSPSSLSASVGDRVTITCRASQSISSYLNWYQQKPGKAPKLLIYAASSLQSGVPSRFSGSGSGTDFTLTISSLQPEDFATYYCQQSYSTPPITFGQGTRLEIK
notes: bivalent parental anti-PD-L1 antibody; captured by anti-human Fc); also called 9364P3; parental bivalent PD-L1 antibody
B2: REGN6189 (bispecific antibody, human IgG4 S228P, kappa)
heavy 1: EVQLVESGGGLVQPGRSLRLSCAASGFTFDDYALHWVRQAPGKGLEWVSGISWTGGTIDYADSVKGRFTISRDNAKNSLYLQMSSLRTEDTAIYYCTRDIRGNWKYGGWFDPWGQGTLVTVSSASTKGPSVFPLAPCSRSTSESTAALGCLVKDYFPEPVTVSWNSGALTSGVHTFPAVLQSSGLYSLSSVVTVPSSSLGTKTYTCNVDHKPSNTKVDKRVESKYGPPCPPCPAPPVAGPSVFLFPPKPKDTLMISRTPEVTCVVVDVSQEDPEVQFNWYVDGVEVHNAKTKPREEQFNSTYRVVSVLTVLHQDWLNGKEYKCKVSNKGLPSSIEKTISKAKGQPREPQVYTLPPSQEEMTKNQVSLTCLVKGFYPSDIAVEWESNGQPENNYKTTPPVLDSDGSFFLYSRLTVDKSRWQEGNVFSCSVMHEALHNHYTQKSLSLSLGK
heavy 2: QVQLVESGGDVVQPGRSLRLSCTASGFTFSSFGMHWVRQAPGKGLEWVTFLSYDGSYKYYADSVKGRFTISRDNSKNTLYLQMNSLRAEDTAIFYCARDWLDYWGQGTLVTVSSASTKGPSVFPLAPCSRSTSESTAALGCLVKDYFPEPVTVSWNSGALTSGVHTFPAVLQSSGLYSLSSVVTVPSSSLGTKTYTCNVDHKPSNTKVDKRVESKYGPPCPPCPAPPVAGPSVFLFPPKPKDTLMISRTPEVTCVVVDVSQEDPEVQFNWYVDGVEVHNAKTKPREEQFNSTYRVVSVLTVLHQDWLNGKEYKCKVSNKGLPSSIEKTISKAKGQPREPQVYTLPPSQEEMTKNQVSLTCLVKGFYPSDIAVEWESNGQPENNYKTTPPVLDSDGSFFLYSRLTVDKSRWQEGNVFSCSVMHEALHNRFTQKSLSLSPGK
light: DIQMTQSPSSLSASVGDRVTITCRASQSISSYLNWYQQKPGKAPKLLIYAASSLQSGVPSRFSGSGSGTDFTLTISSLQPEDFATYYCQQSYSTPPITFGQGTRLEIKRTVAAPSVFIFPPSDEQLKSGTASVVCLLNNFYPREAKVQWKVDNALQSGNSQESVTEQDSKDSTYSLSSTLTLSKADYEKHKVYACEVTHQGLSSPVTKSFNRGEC
notes: common light chain 1-39; also called R6189; PD-L1x4-1BB REGN6189
B3: REGN6190 (bispecific antibody, human IgG4 S228P, kappa)
heavy 1: B2 heavy 1
heavy 2: EVQLVESGGGLVQPGGSLRLSCEASGFTFSSYEMNWVRQAPGKGLEWISHISSSGSSIYYADSVQGRFTISRDKAKNSLYLQMNSLRAEDTAVYYCTREGFEYGSSSGLKYYYYGLDVWGQGTTVTVSSASTKGPSVFPLAPCSRSTSESTAALGCLVKDYFPEPVTVSWNSGALTSGVHTFPAVLQSSGLYSLSSVVTVPSSSLGTKTYTCNVDHKPSNTKVDKRVESKYGPPCPPCPAPPVAGPSVFLFPPKPKDTLMISRTPEVTCVVVDVSQEDPEVQFNWYVDGVEVHNAKTKPREEQFNSTYRVVSVLTVLHQDWLNGKEYKCKVSNKGLPSSIEKTISKAKGQPREPQVYTLPPSQEEMTKNQVSLTCLVKGFYPSDIAVEWESNGQPENNYKTTPPVLDSDGSFFLYSRLTVDKSRWQEGNVFSCSVMHEALHNRFTQKSLSLSPGK
light: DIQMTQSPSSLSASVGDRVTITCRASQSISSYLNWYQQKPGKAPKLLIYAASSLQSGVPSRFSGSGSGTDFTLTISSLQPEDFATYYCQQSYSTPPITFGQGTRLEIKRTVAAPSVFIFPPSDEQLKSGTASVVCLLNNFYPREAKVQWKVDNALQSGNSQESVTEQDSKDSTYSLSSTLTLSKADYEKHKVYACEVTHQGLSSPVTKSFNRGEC
notes: common light chain 1-39; also called R6190; PD-L1x4-1BB REGN6190

Key:
human PD-L1 on cells [1] = biological target: T1, human PD-L1 on cells (human, UniProt Q9NZQ7 19-290); experiment: flow cytometry, OVCAR3/hPD-L1 cells
T1 construct: whole, on cells; the cell line stands under assay; also called hPD-L1; OVCAR3/hPD-L1
Experimental: (§1) Binding was detected by using a labeled secondary antibody and measuring fluorescence on a flow cytometer.
(§2) Assay set up: OVCAR-3+/−PD-L1 cells were lifted with trypsin, washed and resuspended in stain buffer (2% FBS in PBS). OVCAR-3 and Jurkat/NFkB-Luc/h41BB cells were counted and added to wells at 200,000 cells/well. Cells, in wells of 96-well round bottom plates, were pelleted by centrifugation and resuspended in 150 ul stain buffer (PBS containing 2% FBS). Plates were once again centrifuged and subsequently 100 ul of stain buffer alone or stain buffer containing antibody, titrated from 200 nM to 12 pM in a 9-point 1:4 dose titration were added to cells. Cells and antibodies were incubated for 30 min on ice and then washed in stain buffer. Cells were resuspended in 2 μg/ml allophycocyanin (APC) conjugated goat-anti human secondary antibody. A secondary antibody alone control was included. Cells and secondary were incubated for 30 min on ice and then washed in stain buffer. […] After washing they were filtered and analyzed by flow cytometry. EC₅₀ values of the antibodies were determined from a 4 parameter logistic equation over a 9-point dose response curve (including secondary only control) using GraphPad Prism software.

hPD-L1-mFc = biological target: T2, hPD-L1-mFc (human; mouse, UniProt Q9NZQ7 19-239); experiment: blocking ELISA, 0.7 nM hPD-L1-mFc binding to coated hPD1-hFc
T2 construct: range 19-239; also called human PD-L1 extracellular domain with mouse IgG2a Fc; not shown: Fc portion of mouse IgG2a at the C-terminus, amino acids E98-K330
Experimental: In the PD-L1 blocking assay, hPD1-hFc protein ([…] in PBS) was coated onto a 96-well microtiter plate overnight at 4° C. […] The plates were then developed using TMB substrate solution (BD Biosciences) according to the manufacturer's recommended procedure and the absorbance at 450 nm was measured on a SpectraMax I3x plate reader.
(§3) Binding data were analyzed using a sigmoidal (four-parameter logistic) dose-response model with GraphPad Prism™ software. […] The percent blocking of tested antibodies at the highest tested concentration of 100 nM was calculated based on the formula shown below: […]

human 4-1BB on cells [2] = biological target: T3, human 4-1BB on cells (human, UniProt Q07011 24-255); experiment: cell-based or functional assay
[3] = biological target: human PD-L1 expressed with a C-terminal myc-myc-hexahistidine tag (hPD-L1.mmH) (human); experiment: SPR Biacore, 25 C, antibody captured via anti-hFc, hPD-L1.mmH as analyte
Experimental: The CM5 Biacore sensor surface was derivatized by amine coupling with a monoclonal mouse anti-human Fc antibody. All Biacore binding studies were performed in a buffer composed of 0.01M HEPES pH 7.4, 0.15M NaCl, 3 mM EDTA, 0.05% v/v Surfactant P20 (HBS-EP running buffer). […] Antibody-reagent association was monitored for 5 minutes while dissociation in HBS-EP running buffer was monitored for 10 minutes. At the end of each cycle, the antibody capture surface was regenerated using a 12 sec injection of 20 mM phosphoric acid. All binding kinetics experiments were performed at 25° C.
(§4) Data analysis: The specific SPR-Biacore sensorgrams were obtained by a double referencing procedure. The double referencing was performed by first subtracting the signal of each injection over a reference surface (anti-hFc or anti-mFc) from the signal over the experimental surface (anti-hFc-captured anti-PD-L1×4-1BB antibodies) thereby removing contributions from refractive index changes. In addition, running buffer injections were performed to allow subtraction of the signal changes resulting from the dissociation of captured antibodies or antigens from the coupled anti-hFc or anti-mFc surface. Kinetic association (kₐ) and dissociation (kd) rate constants were determined by fitting the real-time sensorgrams to a 1:1 binding model using Scrubber v2.0c curve fitting software. Binding dissociation equilibrium constants (KD) and dissociative half-lives (t½) were calculated from the kinetic rate constants as: […]

human PD-L1 on cells [4] = biological target: T1, human PD-L1 on cells; experiment: flow cytometry, Jurkat/NFkB-Luc/h41BB cells (potential low endogenous PD-L1)
Experimental: as §1, §2

human PD-L1 on cells [5] = biological target: T1, human PD-L1 on cells; experiment: flow cytometry, OVCAR3 cells (low endogenous PD-L1)
Experimental: as §1, §2

human 4-1BB on cells [6] = biological target: T3, human 4-1BB on cells; experiment: cell-based or functional assay; remark: listed apart in the source
[7] = biological target: T4, human 4-1BB expressed with a C-terminal myc-myc-hexahistidine tag (h4-1BB.mmH) (human); experiment: blocking ELISA, 0.25 nM h4-1BB-mmh binding to coated 6His-Flag-h4-1BBL
T4 construct: also called hCD137 (4-1BB) mmH
Experimental: The 4-1BB blocking assay was performed similarly to the PD-L1 blocking assay. 6His-Flag-h4-1BBL protein ([…] in PBS) was coated onto a 96-well microtiter plate overnight at 4 °C. […] The plates were developed using TMB substrate solution (BD Biosciences) and the absorbance at 450 nm was measured on a SpectraMax I3x plate reader.
as §3

[8] = biological target: T4, human 4-1BB expressed with a C-terminal …; experiment: SPR Biacore, 25 C, antibody captured via anti-hFc, h4-1BB.mmH as analyte
Experimental: The CM5 Biacore sensor surface was derivatized by amine coupling with a monoclonal mouse anti-human Fc antibody. All Biacore binding studies were performed in a buffer composed of 0.01M HEPES pH 7.4, 0.15M NaCl, 3 mM EDTA, 0.05% v/v Surfactant P20 (HBS-EP running buffer). […] Antibody-reagent association was monitored for 5 minutes while dissociation in HBS-EP running buffer was monitored for 10 minutes. At the end of each cycle, the antibody capture surface was regenerated using a 10 sec injection of 20 mM phosphoric acid. All binding kinetics experiments were performed at 25° C.
as §4

human PD-L1 on cells [9] = biological target: T1, human PD-L1 on cells; experiment: cell-based or functional assay
human 4-1BB on cells [10] = biological target: T3, human 4-1BB on cells; experiment: flow cytometry, Jurkat/NFkB-Luc/h41BB cells
Experimental: as §1
Assay set up: OVCAR-3+/−PD-L1 cells were lifted with trypsin, washed and resuspended in stain buffer (2% FBS in PBS). OVCAR-3 and Jurkat/NFkB-Luc/h41BB cells were counted and added to wells at 200,000 cells/well. Cells, in wells of 96-well round bottom plates, were pelleted by centrifugation and resuspended in 150 ul stain buffer (PBS containing 2% FBS). Plates were once again centrifuged and subsequently 100 ul of stain buffer alone or stain buffer containing antibody, titrated from 200 nM to 12 pM in a 9-point 1:4 dose titration were added to cells. Cells and antibodies were incubated for 30 min on ice and then washed in stain buffer. Cells were resuspended in 2 μg/ml allophycocyanin (APC) conjugated goat-anti human secondary antibody. A secondary antibody alone control was included. Cells and secondary were incubated for 30 min on ice and then washed in stain buffer. After a subsequent wash with PBS (containing no FBS), cells were resuspended in viability dye (reconstituted in DMSO according to the manufacturer's protocol and diluted 1:1000 in PBS) and incubated for 20 min on ice. They were then washed with stain buffer and resuspended in 2% PFA for 30 min at 4 C. After washing they were filtered and analyzed by flow cytometry. EC₅₀ values of the antibodies were determined from a 4 parameter logistic equation over a 9-point dose response curve (including secondary only control) using GraphPad Prism software.

T1 sequence (Q9NZQ7 19-290): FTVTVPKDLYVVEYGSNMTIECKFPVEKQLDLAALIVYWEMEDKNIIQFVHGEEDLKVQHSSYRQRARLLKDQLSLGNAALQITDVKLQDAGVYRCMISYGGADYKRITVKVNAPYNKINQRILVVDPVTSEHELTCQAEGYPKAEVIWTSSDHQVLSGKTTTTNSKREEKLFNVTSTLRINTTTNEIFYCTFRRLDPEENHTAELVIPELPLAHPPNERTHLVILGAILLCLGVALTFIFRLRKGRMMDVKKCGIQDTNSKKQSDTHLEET
T4 sequence (chain, as listed by the source limits assumed): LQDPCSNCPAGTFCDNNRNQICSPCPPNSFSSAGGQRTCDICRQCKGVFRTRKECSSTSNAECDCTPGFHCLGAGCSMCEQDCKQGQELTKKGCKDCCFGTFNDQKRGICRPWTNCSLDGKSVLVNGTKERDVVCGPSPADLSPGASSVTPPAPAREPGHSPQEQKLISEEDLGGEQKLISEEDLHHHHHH
Chain of human PD-L1 expressed with a C-terminal myc-myc-hexahistidine tag (hPD-L1.mmH) (human) (chain, as listed by the source limits assumed): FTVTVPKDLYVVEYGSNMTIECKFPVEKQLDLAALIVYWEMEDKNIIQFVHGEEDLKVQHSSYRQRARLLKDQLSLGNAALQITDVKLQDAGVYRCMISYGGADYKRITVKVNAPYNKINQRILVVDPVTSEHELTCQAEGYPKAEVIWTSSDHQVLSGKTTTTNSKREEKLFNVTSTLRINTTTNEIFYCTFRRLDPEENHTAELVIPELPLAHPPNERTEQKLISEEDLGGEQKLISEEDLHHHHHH
T3 sequence (Q07011 24-255): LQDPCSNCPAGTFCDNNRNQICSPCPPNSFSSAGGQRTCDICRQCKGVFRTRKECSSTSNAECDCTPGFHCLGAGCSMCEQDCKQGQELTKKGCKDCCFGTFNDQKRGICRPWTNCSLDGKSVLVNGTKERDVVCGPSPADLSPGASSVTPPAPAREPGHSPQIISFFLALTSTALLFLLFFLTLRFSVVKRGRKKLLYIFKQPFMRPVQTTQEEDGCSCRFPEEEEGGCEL
T2 sequence (Q9NZQ7 19-239 limits assumed): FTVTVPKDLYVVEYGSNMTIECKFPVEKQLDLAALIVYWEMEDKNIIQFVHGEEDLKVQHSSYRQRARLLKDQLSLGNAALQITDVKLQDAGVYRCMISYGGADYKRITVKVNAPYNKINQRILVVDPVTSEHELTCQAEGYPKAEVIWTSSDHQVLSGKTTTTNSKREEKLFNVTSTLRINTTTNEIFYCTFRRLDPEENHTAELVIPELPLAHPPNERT

Binder | NFkB-luciferase MAX (RLU), Jurkat/NFkB-Luc/h41BB + HEK293/hCD20/hPSMA (human 4-1BB on cells [2]) | NFkB-luciferase MAX (RLU), Jurkat/NFkB-Luc/h41BB + HEK293/hCD20/hPSMA/hPD-L1 (human 4-1BB on cells [2]) | IL2 release MAX, human CD3+ T cells + HEK293/hCD20/hPSMA + CD20xCD3 (human 4-1BB on cells [6]) | IL2 release MAX, human CD3+ T cells + HEK293/hCD20/hPSMA, no CD20xCD3 (human 4-1BB on cells [6]) | IL2 release MAX, human CD3+ T cells + HEK293/hCD20/hPSMA/hPD-L1 + CD20xCD3 (human 4-1BB on cells [6]) | IL2 release MAX, human CD3+ T cells + HEK293/hCD20/hPSMA/hPD-L1, no CD20xCD3 (human 4-1BB on cells [6]) | % Blocking at 100 nM mAb [7] | 270 nM h4-1BB-mmH Bind (RU) [8] | NFkB-luciferase EC50, Jurkat/NFkB-Luc/h41BB + HEK293/hCD20/hPSMA/hPD-L1 (human 4-1BB on cells [2]) | IL2 release EC50, human CD3+ T cells + HEK293/hCD20/hPSMA/hPD-L1 + CD20xCD3 (human 4-1BB on cells [6]) | Fold change (max MFI over secondary antibody alone) (human 4-1BB on cells [10]) | Max [gMFI] (human 4-1BB on cells [10]) | Kd [8] | koff [8] | kon [8] | t½ [8] | other results
B1 | 60900 RLU | 70900 RLU | 13.4 pg/mL | 3.5 pg/mL | 9.3 pg/mL | 3.5 pg/mL | 0% | 2 RU | – | – | – | – | – | – | – | – | EC50 (human PD-L1 on cells [1]): 0.86 nM; Fold change (max MFI over secondary antibody alone) (human PD-L1 on cells [1]): 2200 fold; IC50 (hPD-L1-mFc): 0.52 nM; Kd [3]: 0.13 nM; koff [3]: 7.42e-05 s⁻¹; kon [3]: 571000 M⁻¹ s⁻¹; t½ [3]: 2.59 h; Fold change (max MFI over secondary antibody alone) (human PD-L1 on cells [4]): 9.5 fold; EC50 (human PD-L1 on cells [5]): 0.0084 nM; Fold change (max MFI over secondary antibody alone) (human PD-L1 on cells [5]): 4.4 fold; binding result [8]: no binding (tested: 270 nM); AP-1 luciferase EC50, Jurkat/AP1-luc/hPD1 + WSU-DLCL2/hPD-L1 + CD20xCD3 (human PD-L1 on cells [9]): 0.00651 nM
B2 | 175000 RLU | 1.18e+06 RLU | 8.7 pg/mL | 10.1 pg/mL | 83.1 pg/mL | 10.1 pg/mL | 64% | 25.4 RU | 7.03 nM | 1.09 nM | 23.8 fold | 54000 gMFI | 61.6 nM | 0.0315 s⁻¹ | 511000 M⁻¹ s⁻¹ | 24 s | –
B3 | 120000 RLU | 973000 RLU | 9.6 pg/mL | 8.9 pg/mL | 52.5 pg/mL | 8.9 pg/mL | 85% | 30.7 RU | 4.48 nM | 0.663 nM | 36.2 fold | 82000 gMFI | 30.3 nM | 0.021 s⁻¹ | 692000 M⁻¹ s⁻¹ | 30 s | –
